In the series the test system is MS2 coat protein. Put plainly: apparent KD of MS2 coat protein; designed switch direction (-1 OFF switch, 1 ON switch): -1; higher = weaker reporter binding. In short, it runs like this:
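Each step of the titration lasted 0.8–1.5 h at the lowest concentration and 10–20 min at the highest. The protein, SNAP-549-labelled MS2 coat protein, went from 0.7 or 1.5 nM doubling to 3 µM over RNA switches transcribed on Illumina chips by stalled E. coli RNA polymerase. Normalised cluster fluorescence was curve-fitted, and the per-design median over clusters is given as apparent KD.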

[1] abbreviates: Eterna round: R95, input ligand: FMN 200 uM.
Where [2] appears, read: Eterna round: R95, input ligand: microRNA oligo, concentration not stated.
Setting [3] is: Eterna round: R95, input ligand: none.
The mark [4] stands for this setting: input ligand: microRNA oligo, concentration not stated.

Regarding “CGAAAGGUAGGAUAUACGAAGAAAAAGGGUAGAAUAAUAACACAUGAGGAUCACCCAUGUAGAAGGACCAAAGG [Mat - Exclusion 2 - Mod of my Tesla design - D12] (puzzle: Exclusion 2)”, the “apparent KD of MS2 coat protein” value under setting [1] worked out at 13.3 nM, the “apparent KD of MS2 coat protein” value under setting [2] turned out to be 19.4 nM and the “apparent KD of MS2 coat protein” value under setting [3] was determined as 33.2 nM.
On to “CGAGCACGUGUAAGGAUAUGCUCGCUCUAUUUGGCGCAGAAGGUACAUGAGGAUCACCCAUGUAGCGACUUGGG [Eternabot (L2) Solution 7] (Eterna round: R97, puzzle: Brourd's mod of Exclusion 4)”, for which the “apparent KD of MS2 coat protein” value by setting is: (input ligand: FMN 200 uM) 41.6 nM; (input ligand: none) 27.6 nM.
For “CGAGCUGCUGUGAGGAUAUACCUAUGGAUACAUAGGUAGAAGGCACAUGAGGAUCACCCAUGUCCUGCAGCUCG [jl-bmx4-4.60 Eli mod] (Eterna round: R97, puzzle: Brourd's mod of Exclusion 4)”, the “apparent KD of MS2 coat protein” value is, setting by setting: (input ligand: FMN 200 uM) 232 nM; (input ligand: none) 44 nM.
Regarding “CGAGCUUUUUGCUCGUCUUACAUGAGGAUCACCCAUGUCGAGCGAGCGAGCGAGCGAAAGUUUGUUUGUUUGUUUGA [Mod of sellena 3] (Eterna round: R97, puzzle: Sensor, turn-off variant 1)”, the “apparent KD of MS2 coat protein” value (input ligand: FMN 200 uM) was determined as 21.4 nM and the “apparent KD of MS2 coat protein” value (input ligand: none) is 20.4 nM.
The matching figures for “CGAGGUAGAGGAUAUACGUGGAUGUAAAUUCAUGAUAUUCUACAUGAGGAUCACCCAUGUAGAAGGCUAUAGCG [JR_Ex2_Sub077] (Eterna round: R97, puzzle: Exclusion 2)”: 26.9 nM and 18 nM.
For the sequence “CGAGUACAUGAGGAUCACCCAUGUUAGGAUAUUGGUAUCAAAAGAGUCCGAUCUGAUCCAAGAAGGAGCAUGCC [Eternabot (L2) Solution 78] (Eterna round: R97, puzzle: Exclusion 1)”, the “apparent KD of MS2 coat protein” value amounted to 32.5 nM (input ligand: FMN 200 uM) and 27.1 nM (input ligand: none).
Take “CGAGUCUACGAGGAUAUACUUUGAAUUAUCGGCGUAGAAGGCGUGACUUGAGGAUCACCCAAGUGAUAAACCUA [Ririaned] (Eterna round: R97, puzzle: Exclusion 6)”: the “apparent KD of MS2 coat protein” value stood at 54.1 nM (input ligand: FMN 200 uM) and 39.6 nM (input ligand: none).
Turning to “CGAUAUAAGUCAGGAUAUGAGCGCAACUGACGAUCAGAAGGGACACAUGAGGAUCACCCAUGUGAUCUAUCAAUAUUAUACAUC [Prohibition 92 - Jieux - Exclusion NG 1] (Eterna round: R96, puzzle: Exclusion NG 1)”, the “apparent KD of MS2 coat protein” value is, setting by setting: (input ligand: FMN 200 uM) 25.5 nM; under setting [4], 16.2 nM; (input ligand: none) 21.5 nM.
Take “CGAUAUUAUGUCAGGAUAUACAUUGCGAAAGCAAUGUAGAAGGGACAUGAGGAUCACCCAUGUUCCUACUAUCG [Omei A 1] (puzzle: Brourd's mod of Exclusion 4)”: the “apparent KD of MS2 coat protein” value under setting [2] was found to be 11.9 nM.
Regarding “CGAUGAGGAGUGAGGAUAUCGUGUUCGAAAGAACGUGAGAAGGCACAUGAGGAUCACCCAUGUGAUCCUCAUCG [Omei Ex4B A21] (Eterna round: R97, puzzle: Brourd's mod of Exclusion 4)”, the “apparent KD of MS2 coat protein” value (input ligand: FMN 200 uM) came out at 29.8 nM and the “apparent KD of MS2 coat protein” value (input ligand: none) was found to be 24.8 nM.
For “CGAUGCACGAAUCCACAUGAGGAUCACCCAUGUCGUGUUAGCGAGGAUAUCGGAGACACAUAGUAUGAGAAGGCGCGAACCUGA [Ex NG3 #22] (Eterna round: R96, puzzle: Exclusion NG 3)”, the “apparent KD of MS2 coat protein” value by setting is: (input ligand: FMN 200 uM) 13.1 nM; under setting [4], 11.9 nM; (input ligand: none) 13.1 nM.
On to “CGAUGGCGAGGAUAUACAUGAGGAUCACCCAUGUGAGAGAUACUAGUGAGGUCGAUUAGUAGAAGGCGCUGUCG [Mat - Exclusion 3 - Eli Mod - D70] (Eterna round: R97, puzzle: Exclusion 3)”, for which the “apparent KD of MS2 coat protein” value reads like this: (input ligand: FMN 200 uM) 883 nM; (input ligand: none) 38.6 nM.
As to “CGAUGUAGAGGAUAUACGUGAAUUUUGUUAUUUUUUAAUUUACAUGAGGAUCACCCAUGUAGAAGGCUAUAUCG [JR_Ex2_Sub087] (Eterna round: R97, puzzle: Exclusion 2)”, the “apparent KD of MS2 coat protein” value came to 91.9 nM (input ligand: FMN 200 uM) and 22.2 nM (input ligand: none).
Consider “CGAUGUCUUCGGACAUCGAACAUGAGGAUCACCCAUGUAAUGAGCAGAUCUUCAUGCAAGCUUUUUGCUCGUCUUAU [Sensor v3 - turn-off variant 1 - 44] (puzzle: Sensor v3, turn-off variant 1)”, for which the “apparent KD of MS2 coat protein” value came out at 215 nM under setting [1], 11.6 nM under setting [2] and 213 nM under setting [3].
“CGAUGUGGAGUGAGGAUAUCGUGUUCGAAAGAACGUGAGAAGGCACAUGAGGAUCACCCAUGUGAUUCAUGUCG [Omei Ex4B A7] (Eterna round: R97, puzzle: Brourd's mod of Exclusion 4)”: the “apparent KD of MS2 coat protein” value amounted to 40.9 nM (input ligand: FMN 200 uM) and 26.2 nM (input ligand: none).
Regarding “CGAUGUUAUGUCAGGAUAUGCGUUGCGAAAGCAAUGCAGAAGGGACAUGAGGAUCACCCAUGUCCUAACCAUCG [Omei A 5] (puzzle: Brourd's mod of Exclusion 4)”, the “apparent KD of MS2 coat protein” value under setting [2] is 12.7 nM.
Turning to “CGCAAAAGAGGAUAUACAUGAGGAUCACCCAUGUUUUCUCUUCAUAACGGAAACUCGUGUAGAAGGCUUGUGCG [EX3 C.18] (Eterna round: R97, puzzle: Exclusion 3)”, the “apparent KD of MS2 coat protein” value is, setting by setting: (input ligand: FMN 200 uM) 94.4 nM; (input ligand: none) 103 nM.
“CGCAAACAUGAGGAUCACCCAUGUGAGGAUAUCAUGCUUCGUAGUAAACUACGAAGUGUGAGAAGGCACGUGCG [Omei Ex1 D4] (Eterna round: R97, puzzle: Exclusion 1)”: the “apparent KD of MS2 coat protein” value turned out to be 42.9 nM (input ligand: FMN 200 uM) and 29.9 nM (input ligand: none).
As to “CGCAACGCAAGAGGAUAUGUUGGACAUGAGGAUCACCCAUGUAAAAUUGGCGAAACGCAUAUCCAGUAGAAGGCUUCCGAGCAA [Eternabot solution 15] (Eterna round: R96, puzzle: Exclusion NG 2)”, the “apparent KD of MS2 coat protein” value by setting is: (input ligand: FMN 200 uM) 34.6 nM; under setting [4], 15.9 nM; (input ligand: none) 24.1 nM.
Take “CGCAUACAUGAGGAUCACCCAUGUGAGGAUAUCAUGCUUCGUAGUAAACUACGAAGUGUGAGAAGGCACAUGCG [Omei Ex1 D2] (Eterna round: R97, puzzle: Exclusion 1)”: the “apparent KD of MS2 coat protein” value is, setting by setting: (input ligand: FMN 200 uM) 112 nM; (input ligand: none) 62.6 nM.
Take “CGCAUGUGAGGAUAUUAGUAGUAGUCAGAAUAGACUAUUACUGAGAAGGUACAUGAGGAUCACCCAUGUAUCCG [Eli x4 4.21] (Eterna round: R97, puzzle: Exclusion 4)”: the “apparent KD of MS2 coat protein” value (input ligand: FMN 200 uM) worked out at 28.5 nM and the “apparent KD of MS2 coat protein” value (input ligand: none) came out at 17.1 nM.
For “CGCCGAGUGUUAGGAUAUCACAAGCAUCAGCGGUGAGAAGGAACAUGAGGAUCACCCAUGUACUGUCCCAUAAGGACAGGUUUC [Geestiza] (Eterna round: R96, puzzle: Exclusion NG 1)”, the “apparent KD of MS2 coat protein” value turned out to be 82.7 nM (input ligand: FMN 200 uM), 40.9 nM under setting [4] and 60.8 nM (input ligand: none).
Take “CGCGUAUGAGGAUAUGCAUAAAAGGGUGCACUGAGUCUGUGACAUGAGGAUCACCCAUGUAGAAGGCGUGCGCA [Diquzain] (puzzle: Exclusion 2)”: the “apparent KD of MS2 coat protein” value under setting [2] amounted to 25.4 nM.
Regarding “CGCUAGUCAGGAUAUACGAACAUGUCAAAAGACGUGAAGGGACAUGAGGAUCACCCAUGUAGAAGGGACUAGCG [Mat - Exclusion 2 - JL mod - D4] (Eterna round: R96, puzzle: Exclusion 2)”, the “apparent KD of MS2 coat protein” value (input ligand: FMN 200 uM) came out at 256 nM, the “apparent KD of MS2 coat protein” value under setting [4] was 21.3 nM and the “apparent KD of MS2 coat protein” value (input ligand: none) was determined as 32.2 nM.
As for “CGCUAGUCAGGAUAUACGAACAUGUCAAAAGACGUGAAGGGACAUGAGGAUCACCCAUGUAGAAGGGACUAGCG [salish99_ex2_r3_012] (puzzle: Exclusion 2)”, the “apparent KD of MS2 coat protein” value stood at 152 nM under setting [1], 20 nM under setting [2] and 28.5 nM under setting [3].
Turning to “CGGAGCAGAGGGAGAUCCAACAUGAGGAUCACCCAUGUCUCACAAGCUUUUUGCUCGUCUUAUUGUACCUUGGUACU [JL ViennaUCT Edcesobi mod 8] (puzzle: Sensor v3, turn-off variant 1)”, the “apparent KD of MS2 coat protein” value was determined as 155 nM under setting [1], 9.75 nM under setting [2] and 54.6 nM under setting [3].
In the case of “CGGCAAUCCUAGGAUAUGCUAGACGAUAGUCUAGCAGAAGGAGGAACAUGAGGAUCACCCAUGUGUCCUAGCCG [Mat - Exclusion 6 - Eli Mod - D14] (Eterna round: R97, puzzle: Exclusion 6)”, the “apparent KD of MS2 coat protein” value by setting is: (input ligand: FMN 200 uM) 17.8 nM; (input ligand: none) 14.4 nM.
As for “CGGCAUGUACAAGGAUAUCAGCACGUUUAGUGCUGAGAAGGUGUAACAUGAGGAUCACCCAUGUAGAUCAUUAACCGAUUAAUU [ENG1/9-A1] (Eterna round: R96, puzzle: Exclusion NG 1)”, the “apparent KD of MS2 coat protein” value runs as follows: (input ligand: FMN 200 uM) 128 nM; under setting [4], 48.1 nM; (input ligand: none) 59 nM.
For “CGGCCUCGAGGAUAUGCUAUAAAAUGACCUUGGGUCAAAUGACUUGAGGAUCACCCAAGUAGAAGGCGAAAGCC [Bibice] (Eterna round: R97, puzzle: Exclusion 2)”, the “apparent KD of MS2 coat protein” value turned out to be 102 nM (input ligand: FMN 200 uM) and 93 nM (input ligand: none).
On to “CGGGAGGGACAAGCUGUUUGCACGUCUGGUAGUGAUGCAACAUGAGGAUCACCCAUGUAUAGGGUGUGAGAGGAUGG [JR_SV3TOV2_Sub050] (Eterna round: R96, puzzle: Sensor v3, turn-off variant 2)”, for which the “apparent KD of MS2 coat protein” value (input ligand: FMN 200 uM) worked out at 1330 nM, the “apparent KD of MS2 coat protein” value under setting [4] came out at 149 nM and the “apparent KD of MS2 coat protein” value (input ligand: none) came out at 338 nM.
